The DeepSol protein solubility set

Assay: soluble on expression in E. coli; label from the status in PepcDB or PDB records

Sequence | soluble on expression in E. coli
QNSWDSLQPDREQVIASLNVVELLKRHHYNKPPLNDERSAKIYDSYLKMLDPARMYFTAGDIAEFDRWRNRFDDFLKSGDLDPGFVIYKRHLDRLKGRLDYALAMLDKGVDKIDFSVDESLLIDREKAPWAKDTAELDDLWRKKVKDEVLRLKITGKDDKAIQEQLTKRYKNQLSRLKQTRSEDIFQAYINAFAQSYDPHTQYLSPDNAENFDINMSLSLEGIGAVLQSDNDYVKVVRLVPAGPAAKSKQIATSDKIIGVAQGKGEMVDVVGWRLDEVVKLIRGPKGSQVRLEVIPASNAPNDQTSKIVAITREAVKLEDQAAKKSIIKVDHEGRSYKLGVIDLPAFYLDFKAYRAGDPNYKSTTRDVKKLVAELQKDKVDGIVLDLRNNGGGSLQEATELTGLFIDQGPTVLVRNSDGRVDVLNDDEGKAFYTGPLAVLVNRLSASASEIFAGAMQDYHRALILGGQTFGKGTVQTIQPLNHGELKLTLAKFYRVSGQSTQHQGVIPDISYPSIVDDKEIGESALPDSMPWDTIRPVVKDEANPFKPFLAQLKAQHDARTENNADFVYARERLALAQELMKEKTVSLNEAKRRAQQTSIENRQLAMENALRKSKGQEPLKELKREDENALPEEDDKTKPQDDAYLTESGHILLDYLNLNSAVAK | not soluble
MRTLYPEITPYQQGSLKVDDRHTLYFEQCGNPHGKPVVMLHGGPGGGCNDKMRRFHDPAKYRIVLFDQRGSGRSTPHADLVDNTTWDLVADIERLRTHLGVDRWQVFGGSWGSTLALAYAQTHPQQVTELVLRGIFLLRRFELEWFYQEGASRLFPDAWEHYLNAIPPVERADLMSAFHRRLTSDDEATRLAAAKAWSVWEGATSFLHVDEDFVTGHEDAHFALAFARIENHYFVNGGFFEVEDQLLRDAHRIADIPGVIVHGRYDVVCPLQSAWDLHKAWPKAQLQISPASGHSAFEPENVDALVRATDGFA | soluble
MVIKFSSNTTNPPTMIYMGVDKVENEDLIKYGWPEDVWFHVDKLSSAHVYLRLHSGMTIDSIPEALLIDCCQLVKQNSIEGCKLNNVAIVYTMWSNLKKTGDMAVGQVGFHSHKQVKHTVVPTKINEIVNRLEKTRRKDDIDYKEERDARDAKERQKLKKLEQERKDREKKEMLAQNEKKRIEGYEDVDWDAGATTRNDVDPGNLSDDFM | not soluble
MGSDKIHHHHHHMKLAVYVHVPFCKSKCVYCDFYSVVSEKFDEYFSHLLREIDLYEEVLSESEIKTVYFGGGTPSVVPPSFLKMVLEKLERVSRGFTPDEITIEVNPESVETEKLKIYKQIGINRISLGVQACDDTVLKNAGRLYKEETLKKKAKIVLEQFENVNFDFILGLPGETDITLKKDFRFLEEFPPQHVSLYLLEVDERTRLFDLIQKGLVELPEEDDVERRHDLFVEFLKERGFLRYEISNFAKPGKKSLHNLFYWRNENYLGLGVSAGGHIGRFRYVNASDLKEYEEKITKGELPYEYVHENTEEEEALETVFMGLRIKEGVELNRVKILLPLLEKLQKKYPCYLKVKNGKIFLSEDGMNFSKKILSDLIEWYREGGR | not soluble
KYKLVFLGEQAVGKTSIITRFMYDTFDNNYQSTIGIDFLSKTLYLDEGPVRLQLWDTAGQERFRSLIPSYIRDSAAAIVVYDITNRQSFENTTKWIQDILNERGKDVIIALVGNKTDLGDLRKVTYEEGMQKAQEYNTMFHETSAKAGHNIKVLFKKTASKL | soluble
MGSDKIHHHHHHVGNLLVNLAMVLRQPTGISTYALSLLPYLRSLQPTLLSDRLYEGFDHQLISSRLCSDRGRRARLARLYWTQTQVPKLYRRLGSRLLFSPAPEAPIDRHCRSVVMVHDLRPLQLPSHSWQTYYFRWVVPKIVAQASHVLCNSEATATDLCHFYQLPAQKITPIYLGYDRQHYQPWSGKTSNYFLHIGQQFPHKNLERLIRAFAQLPTDYQLYLAGSRHASETPRLEQLVHSLGLRDRVQFLRYVDYADLPRLIGEAIALVYPSLWEGFGLPILEAMACGTPVITAHGSSLSEVGGEAVLYVDPYRIEAIAAAMRDLIDDSNLRQSLRDRGFQQASRFSWEATGKETCQVLEKFL | not soluble
MSLGSVNRVYLARLSRMSVLGPLGESFGRVRDVVISISIVRQQPRVLGLVVDLATRRKIFIPILRVAAIEPHAVTLSTGNVSLHRFEQRPGEALALGQVLDTLVKVNDPALPELAGVDVVVTDLGVEQTRSRDWMVTRVAVRTQRRLRRRCPVHVVDWHNVAGLTPSALAMPGQDVAQLLDQFEGWKAVDVADAIRGLPPKRRHEVFKALHDKRLADVLQELPELDQAEVLSQLGTERAADVLEEMDPDDAADLLAVLNPTEAELLLTRMDPGDSGQVRRLLTHSPDTAGGLMTSDPVVLTPDTSIAEALARVRDPDLTPALASMVFVARPPTATPTGHYLGCVHLQRLLRDPPAELVGGVVDTDLLTLTPETPLAAVTRYFAAYNLVCGPVVDDENHLLGAVTVDDLLDHLLPHDWRVDMPELDPSGAPDRPGGPREGHHHHHH | soluble
MGSDKIHHHHHHMSSAQVNGISKRLIVESPNVKLEDGVLESRFTYRKNHFEHRADGLHVTPKEHDYSFKTVLKPRKTGLLLVGLGGNNGSTAVGSIFANQYAMTWRTKEGHSQANYFGSVTQTATVHLGYDSATQNQIFVPFKDIVPILSPNDLIISGWDISDSNLYEAMGRAKVFEPELQEKLRPFMEPIVPLPSIYYPDFIASNQGDRANNVIPGDNKLEHLEHIRADIRKFKQEHELECVIVLWTANTERYTDVRQGLNATADEIMESIRVNEDEVSPSNIFAVASILEGAHYINGSPQNTLVPGLIELAERHKVFVGGDDFKSGQTKFKSAFVDFLVSSGMKPESIVSYNHLGNNDGKNLSEARQFRSKEISKSSVVDDMVKSNQILFPDAKNPDYCVVIKYVPYVADSKRAMDEYICSIFMGGKQTFVVHNTCEDSLLASPLIYDLAILTELASRVSYKVDDEYKPFHSVLSILSLLLKAPVVPPGTPISNAFMRQFSTLTKLVTALAGFPSDTDMQIEFFTQLPAAKSKSQ | soluble
MGSDKIHHHHHHMYNKFKLMAKIYLGPAGVPHSAKKKNTVEGIRTVKELGLNAMEVEFVQGVRMSKETAEETGQVARELGVRLSVHAPYFINLCSEEKEKIEASKQRILDTADRAELMGADAIAIHIAFYGKMTPEECYQNVKEGLEEVIDKAREMGIRNVKFGVETMAKETAFGTLDEVISISKELKGVIPYIDWAHTFARQGGEIDYGKIIDRLIKELGLTHINSHFESLVYRRGKYVDEHIPIDANAPPFEPLAKELLKRDISITLICESPELERDALKMKEVLERLGYRLE | not soluble
MTRSDRPYRGVEAAERLATRRRQSLSAGLDLLGSDQHDIAELTIRTICRRAGLSVRYFYESFTDKDEFVGRVFDWVVAELVATTQAAVTAVPAREQTRAGMANIVRTITADARVGRLLFSTQLANAVITRKRAESSALFAMLSGQHAVDTLHAPANDHVKAVAHFAVGGVGQTISAWLAGDVRLDPDQLVDQLAALLDELTDPNLSRPRVAATAAKSGANDPQPPEVAGQPPSSARPARRS | soluble
MAHHHHHHMNREQIARRIDLVGPSTGAIVGVATWCALHGAEADAILNYVAEKMKHKDTTDAQRASLVYVIHELLLSCATRGVSENAKRSILKAVSLTLPSAVRDTLRQRASDHTAFLIALQKATEWWGTLNLFPAAWLAKLQCTVQDGQESAGHRTTVPSALMQVANLLQRYQHAKEQWVQNRNIKAEEGRTGSGVASGQDTAAPLAGGGAGASSAVVDDAARRCLIALRKAVESRFERNAAFLAWCEAERAELEGRATTSSADSGVVKMAHGTSPHVPTHSGSGSSYSVKEEGGHSGGPSGEPNDDEDVLGSFFS | soluble
MGHHHHHHSHMARPWTEDGDWTEPGAPGGTEDRPSGGGKANRAHPIKQRPFPYEHKNTWSAQNCKNGSCVLDLSKCLFIQGKLLFAEPKDAGFPFSQDINSHLASLSMARNTSPTPDPTVREALCAPDNLNASIESQGQIKMYINEVCRETVSRCCNSFLQQAGLNLLISMTVINNMLAKSASDLKFPLISEGSGCAKVQVLKPLMGLSEKPVLAGELVGAQMLFSFMSLFIRNGNREILLETPAP | not soluble
MVLYPLEAEVTMVTSFQDADPMGVIYHGNFFRYFEEARRVLMEKIQYGYRDMQDSGYMWPIIDTRVKYVKAIPFNHTIRITAQLTEWENRLRVDYVIYDAETNQRMCKAHTTQVAVSIEKQEMCFVSPAVFLDKVEQWHNHGLEHHHHHH | not soluble
AEVLLGSSDGGLAFVPSDLSIASGEKITFKNNAGFPHNDLFDKKEVPAGVDVTKISMPEEDLLNAPGEEYSVTLTEKGTYKFYCAPHAGAGMVGKVTVN | soluble
